Earlier results on 1 molecule are cited in patent US20050026224A1, “Methods and compositions for modulating G-protein coupled receptor 54” (priority 2003, published 2005).

Series [1] concerns GPR54 transfected CHO cells. The settings on record: GPR54 transfected CHO cells in vitro; Ohtaki et al. 2001.
The subject of series [2] is cell motility. The settings on record: Hori et al. 2001.
The subject of series [3] is cell motility. The settings on record: Hori et al. 2001. This is another data set of the same source.
Series [4] concerns GPR54 transfected CHO cells. The settings on record: GPR54 transfected CHO cells in vitro; Ohtaki et al. 2001. This is another data set of the same source.
Series [5] has as its system GPR54-transfected B16-BL6 melanomas. The settings on record: GPR54-transfected B16-BL6 melanomas in vivo; Ohtaki et al. 2001.

B1: Metastin: peptide ligand agonist for GPR54; protein product of the Kiss-1 gene (SEQ ID NO: 4) (protein, listed as Homo sapiens)
chain: MNSLVSWQLLLFLCATHFGEPLEKVASVGNSRPTGQQLESLGLLAPGEQSLPCTERKPAATARLSRRGTSLSPPPESSGSRQQPGLSAPHSRQIPAPQGAVLVQREKDLPNYNWNSFGLRFGKREAAPGNHGRSAGRGWGAGAGQ
For the molecule B1, the invasion result in series [1] is “inhibits”. The “cell motility in a wound healing assay” value in the series with cell motility [2] is “suppress cell motility”. The “cell motility in a chemotaxis assay” value in the series with cell motility [3] was “suppress cell motility”. Moreover, the chemotaxis result in series [4] is recorded as “inhibits chemotaxis”. Besides, in series [5], the pulmonary metastasis result is recorded as “attenuates pulmonary metastasis”.
